Test results published in patent publication US20200024330A1.

Tests used:
Test in all cases: cell-based or functional assay
[1] = molecular target: HIV-1 Env of isolate 92RW009 (clade A), on pseudovirus (HIV-1)
[2] = molecular target: HIV-1 Env of isolate MG RM-A-014 (pseudovirus) (HIV-1)
[3] = molecular target: HIV-1 Env of isolate MGRM-D-001 (subtype D), on pseudovirus (HIV-1)
[4] = molecular target: HIV-1 Env of isolate MGRM-AE-005 (pseudovirus) (HIV-1)
[5] = molecular target: HIV-1 Env of isolate 92UG046 (subtype D), on pseudovirus (HIV-1)
[6] = molecular target: HIV-1 Env of isolate 92UG114 (subtype D), on pseudovirus (HIV-1)
[7] = molecular target: HIV-1 Env of isolate MGRM-Chronic-B-004 (HIV-1)
[8] = molecular target: HIV-1 Env of isolate CMU02 (pseudovirus) (HIV-1)
[9] = molecular target: HIV-1 Env of isolate MGRM-Chronic-B-002 (HIV-1)
[10] = molecular target: HIV-1 Env of isolate MGRM-AE-002 (pseudovirus) (HIV-1)
[11] = molecular target: HIV-1 Env of isolate 92TH021 (pseudovirus) (HIV-1)
[12] = molecular target: HIV-1 Env of isolate CAAN.A2 (HIV-1)
[13] = molecular target: HIV-1 Env of isolate 92BR020 (HIV-1)
[14] = molecular target: HIV-1 Env of isolate VLGCA1 (pseudovirus) (HIV-1)
[15] = molecular target: HIV-1 Env of isolate JRFL (HIV-1)
[16] = molecular target: HIV-1 Env of isolate 92RW008 (clade A), on pseudovirus (HIV-1)
[17] = molecular target: HIV-1 Env of isolate 6535.3 (HIV-1)
[18] = molecular target: HIV-1 Env of isolate MGRM-Chronic-B-001 (HIV-1)
[19] = molecular target: HIV-1 Env of isolate 93TH305 (HIV-1)
[20] = molecular target: HIV-1 Env of isolate 93WR029 (pseudovirus) (HIV-1)
[21] = molecular target: HIV-1 Env of isolate MGRM-D-002 (subtype D), on pseudovirus (HIV-1)
[22] = molecular target: HIV-1 Env of isolate MG RM-A-011 (pseudovirus) (HIV-1)
[23] = molecular target: HIV-1 Env of isolate APV_13 (HIV-1)
[24] = molecular target: HIV-1 Env of isolate 92WR021 (pseudovirus) (HIV-1)
[25] = molecular target: HIV-1 Env of isolate MG RM-A-006 (pseudovirus) (HIV-1)
[26] = molecular target: HIV-1 Env of isolate 98CN006 (subtype CRF08 BC), on pseudovirus (HIV-1)
[27] = molecular target: HIV-1 Env of isolate 92WR026 (pseudovirus) (HIV-1)
[28] = molecular target: HIV-1 Env of isolate 92WR020 (pseudovirus) (HIV-1)
[29] = molecular target: HIV-1 Env of isolate 93UG077 (pseudovirus) (HIV-1)
[30] = molecular target: HIV-1 Env of isolate 92UG037 (pseudovirus) (HIV-1)
[31] = molecular target: HIV-1 Env of isolate MGRM-AE-003 (pseudovirus) (HIV-1)
[32] = molecular target: HIV-1 Env of isolate APV_6 (HIV-1)
[33] = molecular target: HIV-1 Env of isolate MGRM-AE-004 (pseudovirus) (HIV-1)
[34] = molecular target: HIV-1 Env of isolate 92UG024 (subtype D), on pseudovirus (HIV-1)
[35] = molecular target: HIV-1 Env of isolate MG RM-A-007 (pseudovirus) (HIV-1)
[36] = molecular target: HIV-1 Env of isolate MG RM-A-012 (pseudovirus) (HIV-1)
[37] = molecular target: HIV-1 Env of isolate MGRM-D-005 (subtype D), on pseudovirus (HIV-1)
[38] = molecular target: HIV-1 Env of isolate 92UG005 (subtype D), on pseudovirus (HIV-1)
[39] = molecular target: HIV-1 Env of isolate MGRM-Chronic-B-003 (HIV-1)
[40] = molecular target: HIV-1 Env of isolate MGRM-D-008 (subtype D), on pseudovirus (HIV-1)
[41] = molecular target: HIV-1 Env of isolate MGRM-AE-006 (pseudovirus) (HIV-1)
[42] = molecular target: HIV-1 Env of isolate 92UG001 (subtype D), on pseudovirus (HIV-1)
[43] = molecular target: HIV-1 Env of isolate MG RM-A-013 (pseudovirus) (HIV-1)
[44] = molecular target: HIV-1 Env of isolate 92UG031 (pseudovirus) (HIV-1)
[45] = molecular target: HIV-1 92RW020 envelope glycoprotein (Env) on pseudovirus (HIV-1)
[46] = molecular target: HIV-1 Env of isolate 94UG103 (pseudovirus) (HIV-1)
[47] = molecular target: HIV-1 Env of isolate MGRM-AE-001 (pseudovirus) (HIV-1)
[48] = molecular target: HIV-1 Env of isolate 98CN009 (subtype CRF07_BC), on pseudovirus (HIV-1)
[49] = molecular target: HIV-1 92BR020 envelope glycoprotein (Env) on pseudovirus (HIV-1)
[50] = molecular target: HIV-1 Env of isolate MGRM-D-003 (subtype D), on pseudovirus (HIV-1)
[51] = molecular target: HIV-1 Env of isolate 92WR024 (pseudovirus) (HIV-1)
[52] = molecular target: HIV-1 Env of isolate MG RM-A-008 (pseudovirus) (HIV-1)
[53] = molecular target: HIV-1 Env of isolate MGRM-Chronic-B-008 (HIV-1)
[54] = molecular target: HIV-1 Env of isolate 94 KE 105 (pseudovirus) (HIV-1)
[55] = molecular target: HIV-1 Env of isolate MG RM-A-010 (pseudovirus) (HIV-1)
[56] = molecular target: HIV-1 Env of isolate MGRM-D-004 (subtype D), on pseudovirus (HIV-1)
[57] = molecular target: HIV-1 Env of isolate MG RM-A-009 (pseudovirus) (HIV-1)
[58] = molecular target: HIV-1 Env of isolate APV_17 (HIV-1)
[59] = molecular target: HIV-1 Env of isolate MG RM-A-005 (pseudovirus) (HIV-1)

4970_K22 (PGT-144) (antibody), sequence (VH): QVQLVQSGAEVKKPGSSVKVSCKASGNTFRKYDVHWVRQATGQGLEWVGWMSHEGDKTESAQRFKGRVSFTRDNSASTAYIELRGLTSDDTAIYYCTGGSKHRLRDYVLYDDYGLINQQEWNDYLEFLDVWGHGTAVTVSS
4970_K22 (PGT-144) (antibody), sequence (VL): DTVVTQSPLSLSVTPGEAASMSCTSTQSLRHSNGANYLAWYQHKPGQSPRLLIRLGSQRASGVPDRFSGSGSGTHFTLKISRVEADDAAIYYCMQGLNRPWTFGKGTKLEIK

## 4970_K22 (PGT-144) (antibody)
[1]
  IC50, single-round pseudovirus neutralization: 0.893 µg/mL
[2]
  IC50 (µg/mL), pseudovirus neutralization: > 50 µg/mL
[3]
  IC50, pseudovirus neutralization: > 50 µg/mL
[4]
  IC50 (µg/mL), pseudovirus neutralization: > 50 µg/mL
[5]
  IC50, pseudovirus neutralization: > 50 µg/mL
[6]
  IC50, pseudovirus neutralization: > 50 µg/mL
[7]
  IC50: 9.41 µg/mL
[8]
  IC50 (µg/mL), pseudovirus neutralization: > 50 µg/mL
[9]
  IC50: > 50 µg/mL
[10]
  IC50 (µg/mL), pseudovirus neutralization: > 50 µg/mL
[11]
  IC50 (µg/mL), pseudovirus neutralization: 0.052 µg/mL
[12]
  IC50: > 50 µg/mL
[13]
  IC50: 44 µg/mL
[14]
  IC50 (µg/mL), pseudovirus neutralization: > 50 µg/mL
[15]
  IC50: > 50 µg/mL
[16]
  IC50, single-round pseudovirus neutralization: > 50 µg/mL
[17]
  IC50: > 50 µg/mL
[18]
  IC50: > 50 µg/mL
[19]
  IC50: > 50 µg/mL
[20]
  IC50 (µg/mL), pseudovirus neutralization: 4.39 µg/mL
[21]
  IC50, pseudovirus neutralization: > 50 µg/mL
[22]
  IC50 (µg/mL), pseudovirus neutralization: > 50 µg/mL
[23]
  IC50: > 50 µg/mL
[24]
  IC50 (µg/mL), pseudovirus neutralization: > 50 µg/mL
[25]
  IC50 (µg/mL), pseudovirus neutralization: > 50 µg/mL
[26]
  IC50, pseudovirus neutralization: > 50 µg/mL
[27]
  IC50 (µg/mL), pseudovirus neutralization: 32.7 µg/mL
[28]
  IC50 (µg/mL), pseudovirus neutralization: > 50 µg/mL
[29]
  IC50 (µg/mL), pseudovirus neutralization: > 50 µg/mL
[30]
  IC50 (µg/mL), pseudovirus neutralization: 8.24 µg/mL
[31]
  IC50 (µg/mL), pseudovirus neutralization: > 50 µg/mL
[32]
  IC50: > 50 µg/mL
[33]
  IC50 (µg/mL), pseudovirus neutralization: 0.104 µg/mL
[34]
  IC50, pseudovirus neutralization: > 50 µg/mL
[35]
  IC50 (µg/mL), pseudovirus neutralization: > 50 µg/mL
[36]
  IC50 (µg/mL), pseudovirus neutralization: > 50 µg/mL
[37]
  IC50, pseudovirus neutralization: 14.8 µg/mL
[38]
  IC50, pseudovirus neutralization: > 50 µg/mL
[39]
  IC50: 7.41 µg/mL
[40]
  IC50, pseudovirus neutralization: 9.85 µg/mL
[41]
  IC50 (µg/mL), pseudovirus neutralization: > 50 µg/mL
[42]
  IC50, pseudovirus neutralization: > 50 µg/mL
[43]
  IC50 (µg/mL), pseudovirus neutralization: > 50 µg/mL
[44]
  IC50 (µg/mL), pseudovirus neutralization: 2.17 µg/mL
[45]
  IC50 (ug/ml), neutralizing activity: > 10 µg/mL
[46]
  IC50 (µg/mL), pseudovirus neutralization: > 50 µg/mL
[47]
  IC50 (µg/mL), pseudovirus neutralization: > 50 µg/mL
[48]
  IC50, pseudovirus neutralization: > 50 µg/mL
[49]
  IC50 (ug/ml), neutralizing activity: > 10 µg/mL
[50]
  IC50, pseudovirus neutralization: > 50 µg/mL
[51]
  IC50 (µg/mL), pseudovirus neutralization: 16.3 µg/mL
[52]
  IC50 (µg/mL), pseudovirus neutralization: > 50 µg/mL
[53]
  IC50: > 50 µg/mL
[54]
  IC50 (µg/mL), pseudovirus neutralization: 0.29 µg/mL
[55]
  IC50 (µg/mL), pseudovirus neutralization: 2.79 µg/mL
[56]
  IC50, pseudovirus neutralization: > 50 µg/mL
[57]
  IC50 (µg/mL), pseudovirus neutralization: 2.83 µg/mL
[58]
  IC50: 10.3 µg/mL
[59]
  IC50 (µg/mL), pseudovirus neutralization: 18.6 µg/mL
